Results on one molecule are retold here after patent publication US20260209294A1, “USE OF RECOMBINANT PROTEIN IN PREPARING DRUG FOR INHIBITING ANEURYSM” (HUAZHONG UNIVERSITY OF SCIENCE AND TECHNOLOGY, priority 2022, published 2026).

Test [1] relates to TGFβ1 signaling pathway in VSMC cells (aortic smooth muscle cells). Nature of the test: VSMC cells treated with AGGF1 protein: Western blot, ELISA, RT-PCR of TGFβ1 signaling. The class given is cell-based. On the procedure:
FIG. 8 depicts that AGGF1 inhibits TGF-β1 and ERK1/2 signaling pathways and a TGF-β1-induced VSMC inflammation. […] Subsequently, cell lysates are collected for the western blot analysis of p-ERK1/2, T-ERK1/2, and p-Smad3. The GAPDH serves as a loading control. […] After 48 hours, the cell lysates are collected for the western blot analysis of p-ERK1/2, T-ERK1/2, and p-Smad3. […] The GAPDH serves as a loading control. […] Subsequently, mRNA is extracted using a Trizol method and reverse transcribed to obtain cDNA for a real-time RT-PCR detection of Il-6, Mcp1, Mmp2, and Mmp9 mRNA levels. […] Subsequently, mRNA is extracted using the Trizol method and reverse transcribed to obtain cDNA. The real-time RT-PCR is performed to analyze the mRNA levels of Il-6, Mcp1, Mmp2, and Mmp9. *, P<0.05; **, P<0.01; ***, P<0.001; n=3/group.
(§1) The β-actin serves as a loading control. […] The GAPDH serves as a loading control. […] The mRNA is extracted using the Trizol method and reverse transcribed to obtain cDNA. […] Cells are transfected with different plasmids of LAP-TGF-β1-FLAG and the integrin α7-FLAG, and treated with the purified AGGF1 or AGGF1-RDDdel for 24 hours, with grouping as shown in FIG. K. *, P<0.05; **, P<0.01; ***, P<0.001; n≥3/group.
(§2) In vitro experiments were performed using aortic smooth muscle cells and HEK293T cells. As shown in A-C of FIG. 8 and A-F of FIG. 9, whether with recombinant AGGF1 protein, AGGF1-FLAG overexpression, or AGGF1 silencing, Western blot analysis and ELISA experimental results verified that AGGF1 inhibits the TGFβ1 signaling pathway (Smad3 and ERK1/2) and the level of the mature TGFβ1. […] In the Western blot analysis of FIG. 10, it was verified that LAP-TGFβ1 interacts with integrin α7 through the RGD sequence, which is also the molecular mechanism by which integrin α7 inhibits TGFβ1.
(Immunoblotting shows a protein as a band on a membrane.)

Test [2] concerns mature TGFβ1 in HEK293T cells. Nature of the test: ELISA of TGF-β1 levels in culture medium of HEK293T cells transfected with LAP-TGF-β1-FLAG and integrin α7-FLAG. As to conditions: purified protein 24 hours. Format: cell-based. How it is done: as §1, §2
Test [3] deals with TAC-induced mouse aneurysm model. Briefly: TAC (transverse aortic constriction)-induced aneurysm model, i.p. recombinant AGGF1 or AGGF1-RDDdel protein. Particulars: 0.5 mg/kg i.p., day 21. Format: in vivo, C57BL/6 mice.

B1: AGGF1 protein: recombinant human AGGF1 protein with His tag, SEQ ID NO:1, expressed from pet28-AGGF1 in Escherichia coli BL21 (DE3) (protein, listed as Homo sapiens)
chain: MASEAPSPPRSPPPPTSPEPELAQLRRKVEKLERELRSCKRQVREIEKLLHHTERLYQNAESNNQELRTQVEELSKILQRGRNEDNKKSDVEVQTENHAPWSISDYFYQTYYNDVSLPNKVTELSDQQDQAIETSILNSKDHLQVENDAYPGTDRTENVKYRQVDHFASNSQEPASALATEDTSLEGSSLAESLRAAAEAAVSQTGFSYDENTGLYFDHSTGFYYDSENQLYYDPSTGIYYYCDVESGRYQFHSRVDLQPYPTSSTKQSKDKKLKKKRKDPDSSATNEEKDLNSEDQKAFSVEHTSCNEEENFANMKKKAKIGIHHKNSPPKVTVPTSGNTIESPLHENISNSTSFKDEKIMETDSEPEEGEITDSQTEDSYDEAITSEGNVTAEDSEDEDEDKIWPPCIRVIVIRSPVLQIGSLFIITAVNPATIGREKDMEHTLRIPEVGVSKFHAEIYFDHDLQSYVLVDQGSQNGTIVNGKQILQPKTKCDPYVLEHGDEVKIGETVLSFHIHPGSDTCDGCEPGQVRAHLRLDKKDESFVGPTLSKEEKELERRKELKKIRVKYGLQNTEYEDEKTLKNPKYKDRAGKRREQVGSEGTFQRDDAPASVHSEITDSNKGRKMLEKMGWKKGEGLGKDGGGMKTPIQLQLRRTHAGLGTGKPSSFEDVHLLQNKNKKNWDKARERFTENFPETKPQKDDPGTMPWVKGTLE
modifications: His tag
Take B1: the “TGFβ1-induced inflammation (Il6, Mcp1, Mmp2, Mmp9)” value in test [1] (RT-PCR, TGF-β1 24 hours then AGGF1 24 hours) is “inhibit”. Also, in test [1] (Western blot and ELISA, protein treatment 48 hours), the “level of the mature TGFβ1” value is recorded as “inhibits”. The “TGFβ1 signaling pathway (Smad3 and ERK1/2)” value in test [1] (Western blot, TGF-β1 15 minutes then AGGF1 10 minutes) was “inhibits”. Further, the “inhibition of mature TGFβ1 by integrin α7” value in test [2] was “enhance”. Also, in test [3], the “level of the mature TGFβ1 (Western blot, ascending aorta, FIG. 7)” value is reported as “inhibit”; the “p-ERK1/2 (Western blot, ascending aorta, FIG. 7)” value was “inhibit”; the “p-Smad3 (Western blot, ascending aorta, FIG. 7)” value is given as “inhibit”.
